Where two headings read alike, the source gives them in different places. Where no end group is shown, it is not given here. The star is where a group is joined. Biotin = O=C1N[C@H]2[C@H](CS[C@H]2CCCCC(=O)*)N1; Ahx = NCCCCCC(=O)O
Legend:
91-105aa [1] = target: T1, 91-105aa; experiment: 15-mer peptide ELISA
T1 construct: also called alpha-synuclein peptide 91-105
T1 peptide: {Biotin-Ahx}-ATGFVKKDQLGKNEE

82-96aa [2] = target: T2, 82-96aa; experiment: 15-mer peptide ELISA
T2 construct: also called alpha-synuclein peptide 82-96
T2 peptide: {Biotin-Ahx}-VEGAGSIAAATGFVK

100-114aa [3] = target: T3, 100-114aa; experiment: indirect ELISA on biotinylated 15-mer peptide (streptavidin plate), supernatant 1/100
T3 peptide: {Biotin-Ahx}-LGKNEEGAPQEGILE

109-123aa [4] = target: T4, 109-123aa; experiment: as above
T4 peptide: {Biotin-Ahx}-QEGILEDMPVDPDNE

100-114aa [5] = target: T3, 100-114aa; experiment: 15-mer peptide ELISA;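 note: indirect ELISA of hybridoma supernatant antibodies (1/100, 1 h) binding immobilized 15-mer peptides spanning human alpha-synuclein 1-140 on streptavidin plates, read as optical density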
37-51aa [6] = target: T5, 37-51aa; experiment: 15-mer peptide ELISA
T5 construct: also called alpha-synuclein peptide 37-51
T5 peptide: {Biotin-Ahx}-VLYVGSKTKEGVVHG

1-15aa [7] = target: T6, 1-15aa; experiment: 15-mer peptide ELISA
T6 construct: also called alpha-synuclein peptide 1-15
T6 peptide: {Biotin-Ahx}-MDVFMKGLSKAKEGV

82-96aa [8] = target: T2, 82-96aa; experiment: indirect ELISA on biotinylated 15-mer peptide (streptavidin plate), supernatant 1/100
91-105aa [9] = target: T1, 91-105aa; experiment: 15-mer peptide ELISA
1-15aa [10] = target: T6, 1-15aa; experiment: indirect ELISA on biotinylated 15-mer peptide (streptavidin plate), supernatant 1/100
82-96aa [11] = target: T2, 82-96aa; experiment: 15-mer peptide ELISA
alpha-synuclein fibrils = alpha-synuclein fibrils (Homo sapiens (Human), UniProt P37840 1-140); experiment: cell-based or functional assay
37-51aa [12] = target: T5, 37-51aa; experiment: indirect ELISA on biotinylated 15-mer peptide (streptavidin plate), supernatant 1/100
109-123aa [13] = target: T4, 109-123aa; experiment: 15-mer peptide ELISA;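 note: indirect ELISA of hybridoma supernatant antibodies (1/100, 1 h) binding immobilized 15-mer peptides spanning human alpha-synuclein 1-140 on streptavidin plates, read as optical density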

B1: ACI-8033-5A12-Ab1 (antibody, V domains shown)
VH: QVHLKQSGADLVRPGASVKLSCKASGYTFTDYYINWVKQRPGQGLEWIARIYPGSGNTYYNEKFKGRATLSAEKSSTTAYMQLSSLTSEDSAVYFCVVGYYGAWGQGTTLTVSS
VL: DVVMTQTPLSLPVSLGDQASISCRSSQSLVHSNGKTHLHWYLQKPGQSPKLLIYKVSNRFSGVPDRFSGSGSGTDFTLKISRVEAEDLGVYFCSQSTHVPWTFGGGTKLEIK
notes: mouse hybridoma mAb; also called 917.5A12A11C9
Does B1 bind (91-105aa [1])?
Result: no binding (tested: supernatant 1/100)

Does B1 bind (82-96aa [2])?
Result: no binding (tested: supernatant 1/100)

Does B1 bind (100-114aa [3])?
Result: binds

Does B1 bind (109-123aa [4])?
Result: binds

B2: ACI-8033-1G10-Ab1 (antibody, V domains shown)
VH: DVQLQESGPGLVKPSQTVFLTCTVTGISITTGNYRWSWIRQFPGNKLEWIGYIYYSGTITYNPSLTSRTTITRDTPKNQFFLEMNSLTAEDTATYYCARIYYGNAMDYWGQGTSVTVSS
VL: DVVMTQTPLSLPVSLGDQASISCRSSQSLVHSNGNTYLHWYLQKPGQSPKLLIYKVSNRFSGVPDRFSGSGSGTDFTLKISRVEAEDLGVYFCSQSTHVPHTFGGGTKLEIK
notes: mouse hybridoma mAb; also called 917.1G10A10F6
Does B2 bind (91-105aa [1])?
Result: no binding (tested: supernatant 1/100)

Does B2 bind (82-96aa [2])?
Result: no binding (tested: supernatant 1/100)

Does B2 bind (109-123aa [4])?
Result: binds

B3: ACI-8033-19A2-Ab1 (antibody, V domains shown)
VH: EVQLVESGGGLVQPKGSLKLSCAASGFSFNTYAMNWVRQAPGKGLEWVARIRSKSNNYATYYVDSVKDRFTISRDDSESMLYLQMNNLKTEDTALYYCVSESAYWGQGTLVTVSA
VL: DVVMTQTPLSLPVSLGDQASISCRSSQSLVHSNGNTYLYWYLQKPGQSPKLLIYKVSNRLSGVPDRFSGSGSGTDFTLKISRVEAEDLGVYFCSQSTHVPFTFGSGTKLEIK
notes: mouse hybridoma mAb; also called 917.19A2E9E5
Does B3 bind (91-105aa [1])?
Result: no binding (tested: supernatant 1/100)

Does B3 bind (100-114aa [5])?
Result: no binding (tested: supernatant 1/100)

Does B3 bind (82-96aa [2])?
Result: no binding (tested: supernatant 1/100)

Does B3 bind (109-123aa [4])?
Result: binds

B4: ACI-8033-1A12-Ab1 (antibody, V domains shown)
VH: QVHLKQSGADLVRPGASVKLSCKASGYSFTDFYINWVKQTPGQGLEWIARIYPGNNNTFYNEKFKGKATLSAEKSSTTAYMQLSSLTSEDSAVYFCVVGYYGAWGQGTTLTVSS
VL: DVVMTQTPLSLPVSLGDQASISCRSSQSLVHSNGNTHLHWYLQKPGQSPKLLIYKVSNRFSGVPDRFSGSGSGTDFTLKISRVEAEDLGFYFCSQSTHVPWTFGGGTKLEIK
notes: mouse hybridoma mAb; also called 917.1A12C1B4
Does B4 bind (91-105aa [1])?
Result: no binding (tested: supernatant 1/100)

Does B4 bind (100-114aa [5])?
Result: no binding (tested: supernatant 1/100)

Does B4 bind (82-96aa [2])?
Result: no binding (tested: supernatant 1/100)

Does B4 bind (109-123aa [4])?
Result: binds

B5: ACI-7089-4418F6-Ab1 (antibody, V domains shown)
VH: QVQLQQSGAELARPGASVKVSCKASGYTFTSSGISWLKHRTGQGLEWIGDIYPRSGNTYYNEKFKDKATLTADKSSSTAYMELRSLTSEDSAVYFCSSGNYWGQGTTLTVSS
VL: DIVITQDDLSNPVTSGESVSISCRSSKSLLYKDGKTYLNWFLQRPGQSPQLLIYLMSTRASGVSDRFSGSGSGTDFTLEISRVKAEDVGVYYCQQLLEYPLTFGAGTKLELK
notes: mouse hybridoma mAb; also called 4418F6G7
Does B5 bind (37-51aa [6])?
Result: no binding (tested: supernatant 1/100)

Does B5 bind (1-15aa [7])?
Result: no binding (tested: supernatant 1/100)

Does B5 bind (82-96aa [8])?
Result: binds

Does B5 bind (91-105aa [9])?
Result: no binding (tested: supernatant 1/100)

B6: ACI-7088-4303A1-Ab1 (antibody, V domains shown)
VH: EVQLQQSGAELVRPGASVKLSCTASGFNIKDDYMHWVKQRPEQGLEWIGWIDPENGDSEYASKFQGKATMTADTSSNTAYLQLSSLTSEDTAVYYCKTWGTAQALFPYWGQGTLVTVSA
VL: DIVMTQSQKFMSTSVGDRVSITCKASQNVGTSVGWYQQKAGQSPKLLIHSASNRYTGVPDRFTGSGSGTDFTLTINNMQSEDLADYFCQQYRSYPLTFGAGTKLELK
notes: mouse hybridoma mAb; also called 4303A1E7
Does B6 bind (1-15aa [10])?
Result: binds

Does B6 bind (37-51aa [6])?
Result: no binding (tested: supernatant 1/100)

Does B6 bind (82-96aa [11])?
Result: no binding (tested: supernatant 1/100)

B7: ACI-7088-4317A4-Ab1 (antibody, V domains shown)
VH: EVQLQQSGAELVRPGASVKLSCTASGFNIKDDYMHWVKQRPEQGLEWIGWIDPENGDTEYASKFQGKATMTADTSSNTAYLQLSSLTSEDTAVYYCKTWGTTQALFPYWGQGTLVTVSA
VL: DIVMTQSQKFMYTSVGDRVSITCKASQNVGNAVGWYQQKAGQSPKLLIHSASNRYTGVPDRFTGTGSGTDFTLTINNMQSEDLADYFCQQYRSYPLTFGAGTKLELK
notes: mouse hybridoma mAb; also called 4317A4D2
Does B7 bind (1-15aa [10])?
Result: binds

Does B7 bind (37-51aa [6])?
Result: no binding (tested: supernatant 1/100)

Does B7 bind (91-105aa [9])?
Result: no binding (tested: supernatant 1/100)

Does B7 bind (82-96aa [11])?
Result: no binding (tested: supernatant 1/100)

B8: ACI-7067-1108B11-Ab2 (antibody, V domains shown)
VH: EVQLVESGGGLVQPKGSLKLSCAASGFTFNTYAMHWVRQAPGKGLEWVARIRSKGSNYATNYADSVKDRFTISRDDSQSMLYLQMNNLKTEDTAMYYCVRGHGSSYFSYWGQGTLVTVSA
VL: QIVLTQSPAIMSASPGERITMTCSANSSVTYMHWYQQKSGTSPKRWIYDTSNLASGVPARFSGSGSGTSYSLTISSMEAEDAATYYCQQWKSHPPTFGAGTKLELK
For B8, which “IC50, de novo alpha-synuclein aggregates formed in seeded mouse primary cortical neurons” value (alpha-synuclein fibrils) is on record?
The value was 143 nM.

And the “IC50, de novo alpha-synuclein aggregates formed in the seeded in vitro cellular model” value (alpha-synuclein fibrils)?
The value was 4.5 nM.

B9: ACI-7089-4418C5-Ab1 (antibody, V domains shown)
VH: DGQLQESGPGLVKPSQSLSLTCSVTGYSITSGYYWNWIRQFPGNKLEWMGYINYDGSNNYNPSLKNRISITRDTSKNQFFLKFNFVTTEDTATYYCVRGDVYWGQGTTLTVSS
VL: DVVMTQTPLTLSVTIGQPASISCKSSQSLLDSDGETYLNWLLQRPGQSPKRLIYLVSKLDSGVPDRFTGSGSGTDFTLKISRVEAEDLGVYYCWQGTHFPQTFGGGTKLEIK
notes: mouse hybridoma mAb; also called 4418C5G1
Does B9 bind (82-96aa [8])?
Result: binds

B10: ACI-7089-4409F1-Ab1 (antibody, V domains shown)
VH: DVQLQESGPGLVKPSQSLSLTCSVTGYSITRGYYWNWIRQFPGNKLEWMGYISYDGSNNYNPSLRNRISITRDTSKNQFFLKLKSVTTEDTATYFCARGDSNWGQGTTLTVSA
VL: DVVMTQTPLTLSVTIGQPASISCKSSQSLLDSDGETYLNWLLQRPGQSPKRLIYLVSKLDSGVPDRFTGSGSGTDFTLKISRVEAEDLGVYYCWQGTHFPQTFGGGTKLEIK
notes: mouse hybridoma mAb; also called 4409F1A8
Does B10 bind (37-51aa [6])?
Result: no binding (tested: supernatant 1/100)

Does B10 bind (1-15aa [7])?
Result: no binding (tested: supernatant 1/100)

Does B10 bind (82-96aa [8])?
Result: binds

B11: ACI-7067-1101C8-Ab2 (antibody, V domains shown)
VH: EVQLVESGGGLVQPKGSLKLSCAASGFSFNIYAMNWVRQAPGKGLEWVARIRSKSNNYATYYADSVKDRFTISRADSESMLYLQMNNLKTEDTAMYYCVRVGLRFYAMDYWGQGTSVTVSS
VL: DVLMTQTPLSLPVSLGDQASISCRSSQSIVHSNGNTYLEWYLQKPGQSPKLLIYKVSNRFSGVPDRFSGSGSGTDFTLKISRVEAEDLGVYYCFQGSQGPLTFGAGTKLELK
B11 was tested. Which “IC50, de novo alpha-synuclein aggregates formed in seeded mouse primary cortical neurons” value (alpha-synuclein fibrils) did it give?
The value was 114 nM.

What about the “IC50, de novo alpha-synuclein aggregates formed in the seeded in vitro cellular model” value (alpha-synuclein fibrils) of the same binder?
The value was 3.3 nM.

B12: ACI-7088-4303A3-Ab1 (antibody, V domains shown)
VH: QVQLQQSGAELVRPGASVTLSCKASGYTFTDYEMHWVKQTPVHGLEWIGVIDPETGGAVQNQKFKGKAILTADNSSSTAYMDLRSLTSEDSAVYNCAMGAALRLAYWGQGTLVTVSS
VL: DVLMTQTPLSLPVSLGDQASISCRSSQSIVHSNGNSYLEWYLQKPGQSPKLLIYKVSNRFSGVPDRFSGSGSGTDFTLKINRVEAEDLGVYYCFQGSHVPFTFGSGTKLEIK
notes: mouse hybridoma mAb; also called 4303A3E4
Does B12 bind (37-51aa [12])?
Result: binds

Does B12 bind (1-15aa [7])?
Result: no binding (tested: supernatant 1/100)

Does B12 bind (91-105aa [9])?
Result: no binding (tested: supernatant 1/100)

Does B12 bind (82-96aa [11])?
Result: no binding (tested: supernatant 1/100)

B13: ACI-8033-18C11-Ab1 (antibody, V domains shown)
VH: QVQLQQPGAELVKPGASVKMSCKAAGYTFSSYWITWVRQRPGQGLDWIGDIYPGGGVTNYNEKFKTKATLTVDTSSSTAYMQLSSLTSEDSAVYYCATAQTTFAYWGQGTLVTVSA
VL: DVLMTQTPLSLPVSLGDQASISCRSSQNIVHNNGNTYLEWYLQKPGQSPKLLIYKVSNRFSGVPDRFSGSGSGTDFTLKISRVEAEDLGVYYCFQGSHVPRTFGGGTKLEIK
notes: mouse hybridoma mAb; also called 917.18C11A11F10
What does the source list for B13?
binding result (91-105aa [1]): no binding (tested: supernatant 1/100); binding result (82-96aa [2]): no binding (tested: supernatant 1/100); binding result (109-123aa [13]): no binding (tested: supernatant 1/100); binding result (100-114aa [3]): binds

B14: ACI-8033-18D12-Ab1 (antibody, V domains shown)
VH: QVQLQQPGAELVKPGASVKMSCKASGYTFTSYWITWVRQRPGQGLDWIGDIYPGGGVTNYNEKFKTKATLTVDTSSSTAYMHLSSLTSEDSAVYFCATAQTTFAHWGQGTLVTVSA
VL: DVLMTQTPLSLPVSLGDQASISCRSSQNIAHNNGNTYLEWYLQKPGQSPKLLIYKVSNRFSGVPDRFSGSGSGTDFTLKISRVEAEDLGVYYCFQGSHVPRTFGGGTKLEIK
notes: mouse hybridoma mAb; also called 917.18D12F10D6
What does the source list for B14?
binding result (91-105aa [1]): no binding (tested: supernatant 1/100); binding result (82-96aa [2]): no binding (tested: supernatant 1/100); binding result (109-123aa [13]): no binding (tested: supernatant 1/100); binding result (100-114aa [3]): binds

B15: ACI-7067-1113D10-Ab1 (antibody, V domains shown)
VH: EVQLVESGGGLVQPKGSLKLSCAASGFTFNTYALHWVRQAPGKGLEWVARIRSKSSNYATYYADSVKDRFTISRDDSQSMLYLQMNNLKTEDTGMYYCVRGGVSPFDYWGQGTTLTVSS
VL: QIVLTQSPAIMSASPGEKVTMTCSASSSVSYMHWYQQKSGTSPKRWIYDTSKLASGVPARFSGSGSGTSYSLTISSMEAEDSATYYCQQWSNNPPTFGGGTKLEIK
What does the source list for B15?
IC50, de novo alpha-synuclein aggregates formed in seeded mouse primary cortical neurons (alpha-synuclein fibrils): 702 nM; IC50, de novo alpha-synuclein aggregates formed in the seeded in vitro cellular model (alpha-synuclein fibrils): 39.6 nM
